Assay: soluble on expression in E. coli; label from the status in PepcDB or PDB records

| Sequence | soluble on expression in E. coli |
| --- | --- |
| AAGSINTLAQAEVRSRQISVSSPGSSTDINVKKIASIGDVCESMKQQLLVLVEWAKYIPAFCELPLDDQVALLRAHAGEHLLLGATKRSMMYKDILLLGNNYVIHRNSCEVEISRVANRVLDELVRPFQEIQIDDNEYACLKAIVFFDPDAKGLSDPVKIKNMRFQVQIGLEDYINDRQYDSRGRFGELLLLLPTLQSITWQMIEQIQFVKLFGMVKIDNLLQEMLLGG | soluble |
| AASQSTPWGIKAIYNNSNLTSTSGGAGINIAVLDTGVNTNHPDLSNNVEQCKDFTVGTNFTDNSCTDRQGHGTHVAGSALANGGTGSGVYGVAPEADLWAYKVLGDDGSGYADDIAEAIRHAGDQATALNTKVVINMSLGSSGESSLITNAVDYAYDKGVLIIAAAGNSGPKPGSIGYPGALVNAVAVAALENTIQNGTYRVADFSSRGHKRTAGDYVIQKGDVEISAPGAAVYSTWFDGGYATISGTSMASPHAAGLAAKIWAQSPAASNVDVRGELQTRASVNDILSGNSAGSGDDIASGFGFAKVQ | soluble |
| ADKKRALEKEDMERLMKDIPKQLHSGNRELQRARGFFILMFLLRGMPFVDLAYLKKHDIDGNVLTYRRRKTGRMLTVTLLPEAVKLIKQHMNTDPAFPYLFSLISSKEGTEEAYKEYQLALRNFNYQLMILKQVLGLTTDLSSYTARHTWATMAYYCEVHPGVISEAMGHSSITVTETYLKPFKNKKIDEANVMVFSSFRKSFSVGNCLN | not soluble |
| AECSVDIQGNDQMQFNTNAITVDKSCKQFTVNLSHPGNLPKNVMGHNWVLSTAADMQGVVTDGMASGLDKDYLKPDDSRVIAHTKLIGSGEKDSVTFDVSKLKEGEQYMFFCSELCGINHALMKGTLTLK | soluble |
| AEICLITGTPGSGKTLKMVSMMANDEMFKPDENGIRRKVFTNIKGLKIPHTYIETDAKKLPKSTDEQLSAHDMYEWIKKPENIGSIVIVDEAQDVWPARSAGSKIPENVQWLNTHRHQGIDIFVLTQGPKLLDQNLRTLVRKHYHIASNKMGMRTLLEWKICADDPVKMASSAFSSIYTLDKKVYDLYESAEVHTVNKVKRSK | not soluble |
| AEIYNKDGNKLDLYGKIDGLHYFSDDKDVDGDQTYMRLGVKGETQINDQLTGYGQWEYNVQANNTESSSDQAWTRLAFAGLKFGDAGSFDYGRNYGVVYDVTSWTDVLPEFGGDTYGSDNFLQSRANGVATYRNSDFFGLVDGLNFALQYQGKNGSVSGEGATNNGRGALKQNGDGFGTSVTYDIFDGISAGFAYANSKRTDDQNQLLLGEGDHAETYTGGLKYDANNIYLATQYTQTYNATRAGSLGFANKAQNFEVAAQYQFDFGLRPSVAYLQSKGKDLNGYGDQDILKYVDVGATYYFNKNMSTYVDYKINLLDDNSFTRSAGISTDDVVALGLVYQF | soluble |
| AELLLSDNEDKKQRIKEEKQLKLVKWNFQAPTDEHISQLQTLLGNQAKVSLMSQLFHKDFKQHLAALDSLVRLADTSPRSLLSNSDLLLKWCTLRFFETNPAALIKVLELCKVIVELIRDTETPMSQEEVSAFVPYLLLKTGEAKDNMRTSVRDIVNVLSDVVGPLKMTPMLLDALKSKNARQRSECLLVIEYYITNAGISPLKSLSVEKTVAPFVGDKDVNVRNAAINVLVACFKFEGDQMWKAAGRMADKDKSLVEERIKRTGV | soluble |
| AEPAGRQRPRREPEAMDEQSVESIAEVFRCFICMEKLRDARLCPHCSKLCCFSCIRRWLTEQRAQCPHCRAPLQLRELVNCRWAEEVTQQLDTLQLCSLTKHEENEKDKCENHHEKLSVFCWTCKKCICHQCALWGGMHGGHTFKPLAEIYEQHVTKVNEEVAKLRRRLMELISLVQEVERNVEAVRNAKDERVREIRNAVEMMIARLDTQLKNKLITLMGQKTSLTQETELLESLLQEVEHQLRSCSKSELISKSSEILMMFQQVHRKPMASFVTTPVPPDFTSELVPSYDSATFVLENFSTLRQRADPVYSPPLQVSGLCWRLKVYPDGNGVVRGYYLSVFLELSAGLPETSKYEYRVEMVHQSCNDPTKNIIREFASDFEVGECWGYNRFFRLDLLANEGYLNPQNDTVILRFQVRSPTFFQKSRDQHWYITQLEAAQTSYIQQINNLKERLTIELSRTQKSRDLSPPDNHLSPQNDDALETRAKKSACSDMLLEGGPTTASVREAKEDEEDEEKIQNEDYHHELSDGDLDLDLVYEDEVNQLDGSSSSASSTATSNTEENDIDEETMSGENDVEYNNMELEEGELMEDAAAAGPAGSSHGYVGSSSRISRRTHLCSAATSSLLDIDPLILIHLLDLKDRSSIENLWGLQPRPPASLLQPTASYSRKDKDQRKQQAMWRVPSDLKMLKRLKTQMAEVRCMKTDVKNTLSEIKSSSAASGDMQTSLFSADQAALAACGTENSGRLQDLGMELLAKSSVANCYIRNSTNKKSNSPKPARSSVAGSLSLRRAVDPGENSRSKGDCQTLSEGSPGSSQSGSRHSSPRALIHGSIGDILPKTEDRQCKALDSDAVVVAVFSGLPAVEKRRKMVTLGANAKGGHLEGLQMTDLENNSETGELQPVLPEGASAAPEEGMSSDSDIECDTENEEQEEHTSVGGFHDSFMVMTQPPDEDTHSSFPDGEQIGPEDLSFNTDENSGR | soluble |
| AETTVKPTKLAVIGAGAVGSTLAFAAAQRGIAREIVLEDIAKERVEAEVLDMQHGSSFYPTVSIDGSDDPEICRDADMVVITAGPRQKPGQSRLELVGATVNILKAIMPNLVKVAPNAIYMLITNPVDIATHVAQKLTGLPENQIFGSGTNLDSARLRFLIAQQTGVNVKNVHAYIAGEHGDSEVPLWESATIGGVPMSDWTPLPGHDPLDADKREEIHQEVKNAAYKIINGKGATNYAIGMSGVDIIEAVLHDTNRILPVSSMLKDFHGISDICMSVPTLLNRQGVNNTINTPVSDKELAALKRSAETLKETAAQFGF | soluble |
| AFEKKTANIYTYKSTSGVTSFSDIEPLDVDFSRYRFDCYACEVDSLIDWRKATLYLQPYKNDINKAALKYDIDPAFVRAVIHAESHFNPQAVSKQGAQGLMQLMPATAKELGVRNSLSAQQNIKGGVKHLARLLRKYKGDNKLASAAYNAGEGAVKRHGGIPPYKETQVYVERVGILHQRYGRFSH | not soluble |
| AFSSTTTLTPSNVASREFIDTRAPNPEICVQYGASAMVMDARLFVTLNPFNVYVAQPNIRPGCVLRQNNWAILENKKLVTSDQVRECKNRLNTFGFTGNLDSEKPDIRCIYQNESAQNFFLSQPGAVGPSQDTERF | not soluble |
| AFYNITLRTNDGEKKIECNEDEYILDASERQNVELPYSCRGGSCSTCAAKLVEGEVDNDDQSYLDEEQIKKKYILLCTCYPKSDCVIETHKEDELHDM | soluble |
| AGENLYFQSLMNNFGNEEFDCHFLDEGFTAKDILDQKINEVSSSDDKDAFYVADLGDILKKHLRWLKALPRVTPFYAVKCNDSKAIVKTLAATGTGFDCASKTEIQLVQSLGVPPERIIYANPCKQVSQIKYAANNGVQMMTFDSEVELMKVARAHPKAKLVLRIATDDSKAVCRLSVKFGATLRTSRLLLERAKELNIDVVGVSFHVGSGCTDPETFVQAISDARCVFDMGAEVGFSMYLLDIGGGFPGSEDVKLKFEEITGVINPALDKYFPSDSGVRIIAEPGRYYVASAFTLAVNIIAKKIVLKEQTGSDDEDESSEQTFMYYVNDGVYGSFNCILYDHAHVKPLLQKRPKPDEKYYSSSIWGPTCDGLDRIVERCDLPEMHVGDWMLFENMGAYTVAAASTFNGFQRPTIYYVMSGPAWQLMQQFQNPDFPPEVEEQDASTLPVSCAWESGMKRHRAACASASINV | soluble |
| AGHDGSQLAARLDLPQGPVLATALFAHCFTCSKDIPAARRIAARLAAMGIAVLRFDFTGLGHSEGEFANTTFTSNVGDLAAAARYLAGRDMAPALLIGHSLGGAAVLRARAQIASVRAVVTIGAPADPGHVAHHFETALPRIQAEGAAEVCLGGRPFRIGRDFVEDIAASALQPAIADLRAALLVLHAPRDETVSIDNASQIFMAAKHPKSFVTLDDADHLISRARDAEYAAEVIAAWAGRYVD | not soluble |
| AGLPRNAVTAVVPSPFHHAEAGVLRVPDLKADPRNAAEHTAAIIRELPELVKGARGSLVLFSSRKQMQEVFDGLDRDWRKRVFIQGNLSKQETLNKHKSRVDDGEDSVLFGLASFAEGVDLPGAYCEHVVIAKIPFAVPDDPVEAALAEWIEARGGNPFMEIAVPDASLRLVQACGRLLRTEQDRGTITLLDRRVVTQRYGKAILNALPPFRREIA | not soluble |
| AHHHHHHGSAEMVIPYPHLQRILEKTCELAVTKPMAERMMEIVERKLADLFEVAYENATAENSETIKMRHIPITKGFRSSMNLFRAVIEDENIKIEPILDYVLRKIPADKPLEEEVINELPIITGTLFVLIGRVIKALHPEVRNVYPEHIEEAEKVLDYTL | soluble |
| AHHHHHHGSEEYYVCPECGSEDVEVIKERGREVTLRCNECGYVWMITLPKLREIPVIVSKHERSFREKAVLPEDEVIKVGDVIEIENDQVKVLSIELPGGKRVRKAKVAEIQTIWGESLTYPKVFGVSIYLPGGITQSFKVVVDREEEFVVGEVIEVGGYTFKVEMIKTEKKLMRSGKAKAENIVRLMGHAIKGRARRKLKIYEGYDSISAENQ | not soluble |
| AHHHHHHGSFTGKVLIPVKVLKKFENWNEGDMILLEDWKAKELWESGVVEIIDEADKVIGEIDRVLSEEKKNLPLTPIPEGLYEKAEFYIYYLEKYIQEKVDNIETIQTKVTKLANLKKKYKTLKEIRFKKILEAVRLRPNSMEILARLSPAEKRIYLEISKIRREWIGD | not soluble |
| AHHHHHHGSGKLDWIREELEELKKKGLYVTIRVLQSAQGPWVIVNGKKVLNMCSNNYLGLAAHPKIKEAAIRAILDYGVGAGAVRTIAGTMDLHVELEEKLAKFKKREAAILFQSGYNANLGAISALLRKGEDGVFLSEELNHASIIDGMRLSGAPKVIYKHLDMEDLKKKLEENKDKKKKIIVTDGVFSMDGDLAPLPEIVELAEQYDAIVYVDDAHGEGVLGSHGRGIVDHFNLHDKVDFEMGTLSKAFGVIGGYVAGPEEAIEYLKQRARPFLFSSAPNPPDVAAAIAAVEILQKSDDLVKKLWDNTHFLQKGLRDLGYDLGNTKHPITPVMLYDEKLAQEFSRRLFEEYNIFAQAIVYPTVPLGTARIRLEPSAAHTKEDLKLVIDAFEDLGRKTGFLK | soluble |
| AHHHHHHGSGKRVVIALGGNALQQRGQKGSYEEMMDNVRKTARQIAEIIARGYEVVITHGNGPQVGSLLLHMDAGQATYGIPAQPMDVAGAMSQGWIGYMIQQALKNELRKRGMEKKVVTIITQTIVDKNDPAFQNPTKPVGPFYDEETAKRLAREKGWIVKEDSGRGWRRVVPSPDPKGHVEAETIKKLVERGVIVIASGGGGVPVILEDGEIKGVEAVIDKDLAGEKLAEEVNADIFMILTDVNGAALYYGTEKEQWLREVKVEELRKYYEEGHFKAGSMGPKVLAAIRFIEWGGERAIIAHLEKAVEALEGKTGTQVLP | soluble |
| AHHHHHHGSIRVRNLSFSYNGRAILRDIAFEVKEGEFLAILGPNGAGKSTLLRCLAKILKCEGEIEICGRNLHEYSRRELSKTIAYVPQRVEPNFLRVFDMVLLGRKPYMGIIPSEEDIKAVERALKTLKIEHLAGRLTKTLSGGELQKVAIARALAQESSIILLDEPTNNLDPRSQVDLMNLLRKLSQAGKTIVTVMHDINLALRFAEKLMFMKNGEVVGIVETKKISPEIIEETFNVKAEIFETPSGVKFCQFY | soluble |

— the DeepSol protein solubility set
